In paper PMC12308385, “Structural and Functional Characteristics of Potent Dioxygenase from Moesziomyces aphidis” (JACS Au, 2025):
Each block holds one molecule with its values, some of them ahead of it.

Tests used:
MapADO [1] = target: T1, MapADO (Moesziomyces aphidis, UniProt W3VHW6); assay: inhibition of isoeugenol conversion; format: cell-based; conditions: equimolar to isoeugenol; enzyme preparation not stated in main text
T1 construct: gene PaG_05861
T1 sequence (W3VHW6 2-548): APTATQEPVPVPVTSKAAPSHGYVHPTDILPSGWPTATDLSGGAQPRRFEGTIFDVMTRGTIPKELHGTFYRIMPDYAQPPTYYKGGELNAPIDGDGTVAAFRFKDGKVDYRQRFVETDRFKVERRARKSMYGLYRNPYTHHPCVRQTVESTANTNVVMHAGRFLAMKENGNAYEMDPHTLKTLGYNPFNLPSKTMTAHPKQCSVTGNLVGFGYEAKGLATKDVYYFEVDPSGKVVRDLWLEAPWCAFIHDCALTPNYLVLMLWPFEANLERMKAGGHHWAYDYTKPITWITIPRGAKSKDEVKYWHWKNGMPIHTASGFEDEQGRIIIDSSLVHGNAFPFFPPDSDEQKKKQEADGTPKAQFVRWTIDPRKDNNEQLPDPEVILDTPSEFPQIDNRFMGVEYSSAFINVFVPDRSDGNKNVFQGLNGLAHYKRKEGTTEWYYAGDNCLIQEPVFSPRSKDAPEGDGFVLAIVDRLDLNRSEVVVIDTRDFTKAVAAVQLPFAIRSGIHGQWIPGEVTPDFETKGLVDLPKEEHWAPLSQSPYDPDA

MapADO [2] = target: T1, MapADO; assay: X-ray crystal structure (cocrystallization); format: binding; conditions: 40-fold molar excess ligand; front pocket at Fe2+
MapADO [3] = target: T1, MapADO; assay: inhibition of isoeugenol conversion; format: cell-based; conditions: equimolar to isoeugenol; enzyme preparation not stated in main text; suggested competitive
[4] = substrate: CC=Cc1ccc(O)c(OC)c1; assay: spectrophotometric monitoring of vanillin formation; format: biochemical, Thermothelomyces thermophilus; conditions: co-substrate O2; Fe2+ enzyme
Excerpt: spectrophotometric monitoring of vanillin formation on ADO (TtCCO)

[5] = substrate: CC=Cc1ccc(O)c(OC)c1; assay: as above; format: biochemical, Moesziomyces aphidis; conditions: co-substrate O2; Fe2+ enzyme
Excerpt: spectrophotometric monitoring of vanillin formation on MapADO

% reduction of 1a conversion (MapADO [1]): 60%
Molecule: COc1cc(C=O)ccc1O [compound 1, vanillin]
X-ray crystal structure (cocrystallization) (MapADO [2]): In the 1-bound structure (PDB ID: 9G89), interactions include hydrophobic contacts

% inhibition (MapADO [3]): 25%
Molecule: COc1cccc(C=O)c1O [compound 5, ortho-vanillin]

Molecule: O=Cc1ccc(O)cc1 [compound 3, 4-hydroxybenzaldehyde]
X-ray crystal structure (cocrystallization) (MapADO [2]): The 3-bound structure (PDB ID: 9G8A) shows similar hydrophobic interactions and hydrogen bonds

B1: ADO (TtCCO) (Thermothelomyces thermophilus ATCC 42464) (protein)
chain: MAHIHDLAPEVSNYSSGRLTPPTPVRFPRTPVFASMNKPCRFEGDVFDLEVSGAIPPDIDGTFFRVQPDHRFPPLFEDDIHFNGDGSVTAIRISGGHADLRQRYVRTERYLLETRARRSLFGRYRNPWTDNESVRGVIRTASNTNVVFWRGALLAMKEDGPPFAMDPVTLETLGRYDFEGQILSPTFTAHPKIDPDTGEMVCFAYEAGGDGSDCSVDVAVWTVDADGKKVEECWYKAPFAGMIHDCGITKNWVVLPLTPIKMDLERMKRGGNKFAWDPSEDQWYGVVPRRGAKSDDIIWFRADNGFHGHVAGCYELPSGEIVFDLTVADGNVFFFFPPDDNITPPADGVAKRNRLSSPTVRWIFDPKAKKSAIRTEAAGDADIWVADERVKPALTWPTNGEFSRIDDRYVTKPYRHFWQAVVDPTRPYDFEKCGPPAGGLFNCLGHYTWSDQNYHHGHNTGDPSGDGRSNGSAEEATAGKFGLQDVYFAGPTMTFQEPTFIPRQGAAEGEGYLIALLNHLDELRNDVVIFEARNLGKGPLAVIHLPLKLKLGLHGNWVDSREIEAWRRRRAENGDVGPLRVAKEPLPWQKKFAAAAQNGSNGV
notes: purified recombinant; construct details not given; genus given only as T
Km [4]: 2240 ± 264 µM | Vmax [4]: 43 µmol/min/mg | kcat [4]: 44 s⁻¹

B2: MapADO (Moesziomyces aphidis) (protein)
chain: T1 sequence (W3VHW6 2-548)
Km [5]: 118 ± 13 µM | Vmax [5]: 231 µmol/min/mg | kcat [5]: 238 s⁻¹
